Experimental findings from the supplement of paper PMC5998384 are described below.

Series [1] has as its system HeLa Kyoto. Put plainly: melting temperature (median over replicates), in situ; higher = more thermally stable.
Series [2] relates to HeLa Kyoto. Kind of series: solubility change mitosis vs G1/S (difference of NP-40 vs SDS log2 ratios) (log2 ratio difference); higher = more soluble in mitosis.
The test system of series [3] is HeLa Kyoto. Put plainly: solubility in G1/S (NP-40 vs SDS abundance) (log2 ratio); higher = more soluble. The conditions noted are these: cell cycle stage: G1/S.
The subject of series [4] is HeLa Kyoto. Put plainly: thermal stability score vs G1/S (z-score of summed log2 fold changes over temperatures); higher = more thermally stable than in G1/S.
Where [5] appears, read: cell cycle stage: early G1 (4.5 h after nocodazole release).
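Throughout, for melting temperature (median over replicates), in situ: HeLa Kyoto cells synchronized by double thymidine or nocodazole block, proteins quantified by TMT10plex mass spectrometry, three independent biological replicates.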
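Throughout, for solubility change mitosis vs G1/S (difference of NP-40 vs SDS log2 ratios): synchronized HeLa Kyoto cells (double thymidine block for G1/S, nocodazole release for mitosis), protein amounts in NP-40 versus SDS lysates quantified by mass spectrometry, three biological replicates.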
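Throughout, for solubility in G1/S (NP-40 vs SDS abundance): HeLa Kyoto cells arrested at G1/S by double thymidine block, proteins quantified by TMT10plex mass spectrometry in mild NP-40 versus SDS extracts, three biological replicates.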
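Throughout, for thermal stability score vs G1/S (z-score of summed log2 fold changes over temperatures): synchronized HeLa Kyoto cells, proteins quantified by TMT10plex mass spectrometry, three biological replicates, mitosis taken 0.5 h after nocodazole release, G1/S directly after double thymidine block.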

CIAPIN1, sequence (chain, as listed by the source): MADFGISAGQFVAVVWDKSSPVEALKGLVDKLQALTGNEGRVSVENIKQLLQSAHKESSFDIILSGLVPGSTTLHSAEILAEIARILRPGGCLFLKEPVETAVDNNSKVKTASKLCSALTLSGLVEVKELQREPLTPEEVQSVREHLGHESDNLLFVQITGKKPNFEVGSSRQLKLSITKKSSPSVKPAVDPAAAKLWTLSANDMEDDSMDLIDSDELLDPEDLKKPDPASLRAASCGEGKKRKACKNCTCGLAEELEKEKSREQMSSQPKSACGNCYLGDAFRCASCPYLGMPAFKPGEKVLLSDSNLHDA
NRBP1, sequence (chain, as listed by the source): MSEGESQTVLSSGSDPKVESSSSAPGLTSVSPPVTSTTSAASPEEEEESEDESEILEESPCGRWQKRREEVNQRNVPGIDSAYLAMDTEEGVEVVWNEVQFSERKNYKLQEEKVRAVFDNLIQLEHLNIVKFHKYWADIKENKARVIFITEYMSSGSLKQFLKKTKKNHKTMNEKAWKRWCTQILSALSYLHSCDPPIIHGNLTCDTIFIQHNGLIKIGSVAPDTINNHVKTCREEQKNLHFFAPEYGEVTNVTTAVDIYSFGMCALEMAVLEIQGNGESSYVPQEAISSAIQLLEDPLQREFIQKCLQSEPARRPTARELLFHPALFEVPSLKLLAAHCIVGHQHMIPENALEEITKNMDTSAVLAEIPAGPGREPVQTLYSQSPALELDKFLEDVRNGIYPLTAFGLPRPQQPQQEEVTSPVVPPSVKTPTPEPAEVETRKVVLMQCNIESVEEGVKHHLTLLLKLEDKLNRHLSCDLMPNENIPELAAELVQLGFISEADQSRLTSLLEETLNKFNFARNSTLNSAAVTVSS

In the case of “MSVGCACPGCSSKSFKLYSPKEPPNGNAFPPFHPGTMLDRDVGPTPMYPPTYLEPGIGRHTPYGNQTDYRIFELNKRLQNWTEECDNLWWDAFTTEFFEDDAMLTITFCLEDGPKRYTIGRTLIPRYFRSIFEGGATELYYVLKHPKEAFHSNFVSLDCDQGSMVTQHGKPMFTQVCVEGRLYLEFMFDDMMRIKTWHFSIRQHRELIPRSILAMHAQDPQMLDQLSKNITRCGLSNSTLNYLRLCVILEPMQELMSRHKTYSLSPRDCLKTCLFQKWQRMVAPPAEPTRQQPSKRRKRKMSGGSTMSSGGGNTNNSNSKKKSPASTFALSSQVPDVMVVGEPTLMGGEFGDEDERLITRLENTQFDAANGIDDEDSFNNSPALGANSPWNSKPPSSQESKSENPTSQASQ [LDB1]”, the results for the melting temperature in series [1] (cell cycle stage: G1/S) and in series [1] (cell cycle stage: mitosis) were 54.2 °C and 55.8 °C, respectively. In addition, the “solubility change mitosis (log2)” value in series [2] is -0.0611. Also, the “solubility in G1/S (log2)” value in series [3] was -0.0659. The values for the thermal stability score in series [4] (setting [5]) and in series [4] (cell cycle stage: mitosis) were -3.74 and -2.44, respectively.
With EPPK1, the melting temperature in series [1] (cell cycle stage: mitosis) worked out at 51.3 °C. The “solubility change mitosis (log2)” value in series [2] is 0.311. The “solubility in G1/S (log2)” value in series [3] is -2.27. For the same substance, the thermal stability score in series [4] (setting [5]) was -7.26; in series [4] (cell cycle stage: mitosis), -8.82.
On to CIAPIN1, for which the melting temperature in series [1] (cell cycle stage: G1/S) came out at 50.7 °C; in series [1] (cell cycle stage: mitosis), 51.7 °C. Also, the “solubility change mitosis (log2)” value in series [2] is -0.0971. Also, in series [3], the “solubility in G1/S (log2)” value was 0.471. Also, the thermal stability score turned out to be 0.785 in series [4] (setting [5]) and 3.13 in series [4] (cell cycle stage: mitosis).
Take “MSFVAYEELIKEGDTAILSLGHGAMVAVRVQRGAQTQTRHGVLRHSVDLIGRPFGSKVTCGRGGWVYVLHPTPELWTLNLPHRTQILYSTDIALITMMLELRPGSVVCESGTGSGSVSHAIIRTIAPTGHLHTVEFHQQRAEKAREEFQEHRVGRWVTVRTQDVCRSGFGVSHVADAVFLDIPSPWEAVGHAWDALKVEGGRFCSFSPCIEQVQRTCQALAARGFSELSTLEVLPQVYNVRTVSLPPPDLGTGTDGPAGSDTSPFRSGTPMKEAVGHTGYLTFATKTPG [TRMT61A]”: the melting temperature in series [1] (cell cycle stage: G1/S) was found to be 55.4 °C; in series [1] (cell cycle stage: mitosis) it was 57.5 °C. The “solubility change mitosis (log2)” value in series [2] was -0.00636. Moreover, the “solubility in G1/S (log2)” value in series [3] is -0.0252. Further, the thermal stability score was 0.944 in series [4] (setting [5]) and -0.546 in series [4] (cell cycle stage: mitosis).
Regarding “MILIPRMLLVLFLLLPILSSAKAQVNPAICRYPLGMSGGQIPDEDITASSQWSESTAAKYGRLDSEEGDGAWCPEIPVEPDDLKEFLQIDLHTLHFITLVGTQGRHAGGHGIEFAPMYKINYSRDGTRWISWRNRHGKQVLDGNSNPYDIFLKDLEPPIVARFVRFIPVTDHSMNVCMRVELYGCVWLDGLVSYNAPAGQQFVLPGGSIIYLNDSVYDGAVGYSMTEGLGQLTDGVSGLDDFTQTHEYHVWPGYDYVGWRNESATNGYIEIMFEFDRIRNFTTMKVHCNNMFAKGVKIFKEVQCYFRSEASEWEPNAISFPLVLDDVNPSARFVTVPLHHRMASAIKCQYHFADTWMMFSEITFQSDAAMYNNSEALPTSPMAPTTYDPMLKVDDSNTRILIGCLVAIIFILLAIIVIILWRQFWQKMLEKASRRMLDDEMTVSLSLPSDSSMFNNNRSSSPSEQGSNSTYDRIFPLRPDYQEPSRLIRKLPEFAPGEEESGCSGVVKPVQPSGPEGVPHYAEADIVNLQGVTGGNTYSVPAVTMDLLSGKDVAVEEFPRKLLTFKEKLGEGQFGEVHLCEVEGMEKFKDKDFALDVSANQPVLVAVKMLRADANKNARNDFLKEIKIMSRLKDPNIIHLLAVCITDDPLCMITEYMENGDLNQFLSRHEPPNSSSSDVRTVSYTNLKFMATQIASGMKYLSSLNFVHRDLATRNCLVGKNYTIKIADFGMSRNLYSGDYYRIQGRAVLPIRWMSWESILLGKFTTASDVWAFGVTLWETFTFCQEQPYSQLSDEQVIENTGEFFRDQGRQTYLPQPAICPDSVYKLMLSCWRRDTKNRPSFQEIHLLLLQQGDE [DDR2]”, the melting temperature in series [1] (cell cycle stage: G1/S) turned out to be 50.8 °C; in series [1] (cell cycle stage: mitosis) it was 51 °C. Besides, the “solubility change mitosis (log2)” value in series [2] came to 0.0106. Also, the “solubility in G1/S (log2)” value in series [3] is -0.114. For the same substance, the figures for the thermal stability score in series [4] (setting [5]) and in series [4] (cell cycle stage: mitosis) were 0.527 and -1.72, respectively.
Turning to “MEPAPSEVRLAVREAIHALSSSEDGGHIFCTLESLKRYLGEMEPPALPREKEEFASAHFSPVLRCLASRLSPAWLELLPHGRLEELWASFFLEGPADQAFLVLMETIEGAAGPSFRLMKMARLLARFLREGRLAVLMEAQCRQQTQPGFILLRETLLGKVVALPDHLGNRLQQENLAEFFPQNYFRLLGEEVVRVLQAVVDSLQGGLDSSVSFVSQVLGKACVHGRQQEILGVLVPRLAALTQGSYLHQRVCWRLVEQVPDRAMEAVLTGLVEAALGPEVLSRLLGNLVVKNKKAQFVMTQKLLFLQSRLTTPMLQSLLGHLAMDSQRRPLLLQVLKELLETWGSSSAIRHTPLPQQRHVSKAVLICLAQLGEPELRDSRDELLASMMAGVKCRLDSSLPPVRRLGMIVAEVVSARIHPEGPPLKFQYEEDELSLELLALASPQPAGDGASEAGTSLVPATAEPPAETPAEIVDGGVPQAQLAGSDSDLDSDDEFVPYDMSGDRELKSSKAPAYVRDCVEALTTSEDIERWEAALRALEGLVYRSPTATREVSVELAKVLLHLEEKTCVVGFAGLRQRALVAVTVTDPAPVADYLTSQFYALNYSLRQRMDILDVLTLAAQELSRPGCLGRTPQPGSPSPNTPCLPEAAVSQPGSAVASDWRVVVEERIRSKTQRLSKGGPRQGPAGSPSRFNSVAGHFFFPLLQRFDRPLVTFDLLGEDQLVLGRLAHTLGALMCLAVNTTVAVAMGKALLEFVWALRFHIDAYVRQGLLSAVSSVLLSLPAARLLEDLMDELLEARSWLADVAEKDPDEDCRTLALRALLLLQRLKNRLLPPASP [TELO2]”, the melting temperature in series [1] (cell cycle stage: G1/S) was found to be 48.8 °C; in series [1] (cell cycle stage: mitosis) it was 49.1 °C. Moreover, the “solubility change mitosis (log2)” value in series [2] is -0.103. The “solubility in G1/S (log2)” value in series [3] was -0.341. Besides, the thermal stability score in series [4] (setting [5]) is -0.195; in series [4] (cell cycle stage: mitosis), 0.325.
With NRBP1, the melting temperature turned out to be 51.9 °C in series [1] (cell cycle stage: G1/S) and 51.4 °C in series [1] (cell cycle stage: mitosis). Also, in series [2], the “solubility change mitosis (log2)” value was -0.15. The “solubility in G1/S (log2)” value in series [3] worked out at 0.099. Also, the values for the thermal stability score in series [4] (setting [5]) and in series [4] (cell cycle stage: mitosis) were 0.757 and 0.7, respectively.
As to “MFAEAAKTTRPCGMAEFKEKPEAPTEQLDVACGQENLPVGAWPPGAAPAPFQYTPDHVVGPGADIDPTQITFPGCICVKTPCLPGTCSCLRHGENYDDNSCLRDIGSGGKYAEPVFECNVLCRCSDHCRNRVVQKGLQFHFQVFKTHKKGWGLRTLEFIPKGRFVCEYAGEVLGFSEVQRRIHLQTKSDSNYIIAIREHVYNGQVMETFVDPTYIGNIGRFLNHSCEPNLLMIPVRIDSMVPKLALFAAKDIVPEEELSYDYSGRYLNLTVSEDKERLDHGKLRKPCYCGAKSCTAFLPFDSSLYCPVEKSNISCGNEKEPSMCGSAPSVFPSCKRLTLETMKMMLDKKQIRAIFLFEFKMGRKAAETTRNINNAFGPGTANERTVQWWFKKFCKGDESLEDEERSGRPSEVDNDQLRAIIEADPLTTTREVAEELNVNHSTVVRHLKQIGKVKKLDKWVPHELTENQKNRRFEVSSSLILRNHNEPFLDRIVTCDEKWILYDNRRRSAQWLDQEEAPKHFPKPILHPKKVMVTIWWSAAGLIHYSFLNPGETITSEKYAQEIDEMNQKLQRLQLALVNRKGPILLHDNARPHVAQPTLQKLNELGYEVLPHPPYSPDLLPTNYHVFKHLNNFLQGKRFHNQQDAENAFQEFVESQSTDFYATGINQLISRWQKCVDCNGSYFD [SETMAR]”, the melting temperature in series [1] (cell cycle stage: G1/S) was 51.9 °C; in series [1] (cell cycle stage: mitosis), 51.7 °C. In addition, the “solubility change mitosis (log2)” value in series [2] is -0.0662. Besides, the “solubility in G1/S (log2)” value in series [3] is -0.0719. Moreover, the thermal stability score in series [4] (setting [5]) was determined as 1.42; in series [4] (cell cycle stage: mitosis), 0.689.
In the case of “MVRPVRHKKPVNYSQFDHSDSDDDFVSATVPLNKKSRTAPKELKQDKPKPNLNNLRKEEIPVQEKTPKKRLPEGTFSIPASAVPCTKMALDDKLYQRDLEVALALSVKELPTVTTNVQNSQDKSIEKHGSSKIETMNKSPHISNCSVASDYLDLDKITVEDDVGGVQGKRKAASKAAAQQRKILLEGSDGDSANDTEPDFAPGEDSEDDSDFCESEDNDEDFSMRKSKVKEIKKKEVKVKSPVEKKEKKSKSKCNALVTSVDSAPAAVKSESQSLPKKVSLSSDTTRKPLEIRSPSAESKKPKWVPPAASGGSRSSSSPLVVVSVKSPNQSLRLGLSRLARVKPLHPNATST [RAD51AP1]”, the melting temperature in series [1] (cell cycle stage: G1/S) is 53.8 °C; in series [1] (cell cycle stage: mitosis), 58 °C. For the same substance, the “solubility change mitosis (log2)” value in series [2] came to 0.203. In series [3], the “solubility in G1/S (log2)” value came to 0.0638. In addition, the thermal stability score in series [4] (setting [5]) is 1.26; in series [4] (cell cycle stage: mitosis), 7.25.
Regarding “MPVAVGPYGQSQPSCFDRVKMGFVMGCAVGMAAGALFGTFSCLRIGMRGRELMGGIGKTMMQSGGTFGTFMAIGMGIRC [ROMO1]”, the melting temperature came out at 54.5 °C in series [1] (cell cycle stage: G1/S) and 54.9 °C in series [1] (cell cycle stage: mitosis). In series [2], the “solubility change mitosis (log2)” value was 0.0021. In series [3], the “solubility in G1/S (log2)” value was -0.104. The thermal stability score in series [4] (setting [5]) was -0.746; in series [4] (cell cycle stage: mitosis), -1.2.
Take “MRVESGSAQERGILLESLSTLLEKTTASHEGRAPGNRELTDLLPPEVCSLLNPAAIYANNEISLRDVEVYGFDYDYTLAQYADALHPEIFSTARDILIEHYKYPEGIRKYDYNPSFAIRGLHYDIQKSLLMKIDAFHYVQLGTAYRGLQPVPDEEVIELYGGTQHIPLYQMSGFYGKGPSIKQFMDIFSLPEMALLSCVVDYFLGHSLEFDQAHLYKDVTDAIRDVHVKGLMYQWIEQDMEKYILRGDETFAVLSRLVAHGKQLFLITNSPFSFVDKGMRHMVGPDWRQLFDVVIVQADKPSFFTDRRKPFRKLDEKGSLQWDRITRLEKGKIYRQGNLFDFLRLTEWRGPRVLYFGDHLYSDLADLMLRHGWRTGAIIPELEREIRIINTEQYMHSLTWQQALTGLLERMQTYQDAESRQVLAAWMKERQELRCITKALFNAQFGSIFRTFHNPTYFSRRLVRFSDLYMASLSCLLNYRVDFTFYPRRTPLQHEAPLWMDQLCTGCMKTPFLGDMAHIR [NT5DC2]”: the melting temperature in series [1] (cell cycle stage: G1/S) is 53.1 °C; in series [1] (cell cycle stage: mitosis) it was 52.6 °C. The “solubility change mitosis (log2)” value in series [2] is -0.0879. Also, the “solubility in G1/S (log2)” value in series [3] was -0.284. Moreover, the thermal stability score was -0.133 in series [4] (setting [5]) and 0.934 in series [4] (cell cycle stage: mitosis).
